Measured values as given in PMC9214875.

B1: MerTK: N294Q (protein)
parent chain: MGPAPLPLLLGLFLPALWRRAITEAREEAKPYPLFPGPFPGSLQTDHTPLLSLPHASGYQPALMFSPTQPGRPHTGNVAIPQVTSVESKPLPPLAFKHTVGHIILSEHKGVKFNCSISVPNIYQDTTISWWKDGKELLGAHHAITQFYPDDEVTAIIASFSITSVQRSDNGSYICKMKINNEEIVSDPIYIEVQGLPHFTKQPESMNVTRNTAFNLTCQAVGPPEPVNIFWVQNSSRVNEQPEKSPSVLTVPGLTEMAVFSCEAHNDKGLTVSKGVQINIKAIPSPPTEVSIRNSTAHSILISWVPGFDGYSPFRNCSIQVKEADPLSNGSVMIFNTSALPHLYQIKQLQALANYSIGVSCMNEIGWSAVSPWILASTTEGAPSVAPLNVTVFLNESSDNVDIRWMKPPTKQQDGELVGYRISHVWQSAGISKELLEEVGQNGSRARISVQVHNATCTVRIAAVTRGGVGPFSDPVKIFIPAHGWVDYAPSSTPAPGNADPVLIIFGCFCGFILIGLILYISLAIRKRVQETKFGNAFTEEDSELVVNYIAKKSFCRRAIELTLHSLGVSEELQNKLEDVVIDRNLLILGKILGEGEFGSVMEGNLKQEDGTSLKVAVKTMKLDNSSQREIEEFLSEAACMKDFSHPNVIRLLGVCIEMSSQGIPKPMVILPFMKYGDLHTYLLYSRLETGPKHIPLQTLLKFMVDIALGMEYLSNRNFLHRDLAARNCMLRDDMTVCVADFGLSKKIYSGDYYRQGRIAKMPVKWIAIESLADRVYTSKSDVWAFGVTMWEIATRGMTPYPGVQNHEMYDYLLHGHRLKQPEDCLDELYEIMYSCWRTDPLDRPTFSVLRLQLEKLLESLPDVRNQADVIYVNTQLLESSEGLAQGSTLAPLDLNIDPDSIIASCTPRAAISVVTAEVHDSKPHEGRYILNGGSEEWEDLTSAPSAAVTAEKNSVLPGERLVRNGVSWSHSSMLPLGSSLPDELLFADDSSEGSEVLM
B2: MerTK: glucose deprivation (protein)
parent chain: B1 parent chain
B3: MerTK: TM (protein)
parent chain: B1 parent chain
B4: MerTK: N454Q (protein)
parent chain: B1 parent chain

Columns and labels:
[1] = nuclear/cytoplasmic fractionation, Western blot, LO2 and MHCC97H; settings: glycan lost; control: wild type
[2] = cycloheximide chase, Western blot, MHCC97H; settings: glycan lost; control: wild type (G-MerTK)
[3] = Blue Native PAGE, MHCC97H and HCCLM3; settings: glycan lost; control: wild type
[4] = Blue Native PAGE, endogenous MerTK, MHCC97H; settings: glycan lost; control: untreated / with glucose
[5] = MG132 rescue of MerTK level, Western blot; settings: glycan lost; control: no TM
[6] = MerTK IP, anti-ubiquitin blot, MHCC97H and HCCLM3; settings: glycan lost; control: untreated
[7] = nuclear/cytoplasmic fractionation, Western blot, MHCC97H; settings: glycan lost; control: untreated

Row | Protein | localisation_or_trafficking [1] | degradation_or_half_life [2] | oligomerisation [3] | oligomerisation [4] | degradation_or_half_life [5] | other: ubiquitination [6] | localisation_or_trafficking [7]
1 | B1 | increases | decreases | decreases | – | – | – | –
2 | B2 | – | – | – | abolishes | – | – | –
3 | B3 | – | – | – | abolishes | decreases | increases | increases
4 | B4 | increases | decreases | decreases | – | – | – | –
